Key:
Test in all cases: Spectrophotometric hydrolysis of pNA substrates by immobilized ICE (release of pNA at 405 nM)
Assay type in all cases: biochemical, Human
Conditions in all cases: other: pNA substrate 0.01 to 1.5 mM, 25° C., pH 7
[1] = substrate: CC(=O)N[C@@H](Cc1ccc(O)cc1)C(=O)N[C@H](C(=O)N[C@@H](C)C(=O)N[C@@H](CC(=O)O)C(=O)Nc1ccc([N+](=O)[O-])cc1)C(C)C
Description: (§1) Other procedures for purification and assaying ICE are disclosed in Black et al., FEBS Letters, 247, 386-390 (1989), and Thornberry et al., Nature, 356, 768-774 (1992). Cell Culture And Lysates.
(§2) Human monocyte cell line, THP-1 (ATCC-TIB 202) was grown in RPMI media 1640 (Gibco BRL Gaithersburg, Md. 20877) with 10% fetal bovine serum, harvested by centrifugation, washed twice in Dulbecco's PBS […] without Ca^++, and resuspended in 10 mM Tris-HCl pH 8 buffer containing 5 mM DTT (dithiothreitol), 1 mM EDTA (ethylene diamine tetraacetic acid), 1 mM PMSF (phenylmethyl sulfonylfluoride), 1 μg/ml pepstatin, and 1 μg/ml leupeptin at 1-3×10^8 cells per ml. Cells were frozen at -70° C. until use and then lysed by thawing. Lysates were cleared by centrifugation at 20,000× g for 1 hour followed by 120,000×g for 1 hour.
(§3) ICE activity was purified from THP-1 cell lysates by three chromatographic steps: (A) Thp-1 cell lysate (1.5L) was desalted by G25 column chromatography (Pharmacia LKB Biotechnology) (B) The protein fraction was then subjected to ion-exchange chromatography on Q-Sepharose Fast Flow (Pharmacia LKB Biotechnology) in buffer A (20 mM Tris pH 7.8 containing 5 mM EDTA, 1 mM PMSF, 1 μg/ml pepstatin, and 1 μg/ml leupeptin). ICE activity was eluted with a gradient of NaCl in buffer A. (C) The active fractions from B were desalted, concentrated and subjected to MonoQ (trademark) (Pharmacia LKB Biotechnology) column chromatography. ICE activity was then eluted in a NaCl gradient. Active ICE fractions from C were pooled and used to bind immunoaffinity beads containing covalently linked antibodies raised against the first […] N-terminal residues of ICE (NH2 -Asp-Pro-Ala-Met-Pro-Thr-Ser-Ser-Val-Lys-Leu-Cys(SEQ ID NO:2)-CONH2).
(§4) Immobilization of ICE to immunoaffinity beads was done following standard protocols. Briefly, IgG fractions were covalently linked to protein A beads as described by the manufacturers (Antibody Orientation Kit Protein A Agarose supplied by Affinica (trademark) (Product manufactured by Schleicher and Schuell)). Protein A beads were pelleted by centrifugation and washed with 5 times their volume with Affinica (trademark) supplied "binding buffer". IgG, appropriately diluted in "binding buffer," was then bound to the beads. The beads were then washed and the bound IgG was covalently linked with dimethyl suberimidate. After the reaction was stopped with the "quenching buffer" supplied by Affinica (trademark), the immunoaffinity beads were washed and stored in PBS buffer containing 0.02% NAN3. […]
(§5) The enzymatic reaction was monitored spectrophotometrically at […]. The increase in absorbance at this wave length resulted from the release of pNA chromophore after hydrolysis by ICE of the peptidic-pNA substrate. […]

[2] = substrate: CC(=O)N[C@H](C(=O)N[C@@H](C)C(=O)N[C@@H](CC(=O)O)C(=O)Nc1ccc([N+](=O)[O-])cc1)C(C)C
Description: as §1, §2, §3, §4, §5

[3] = substrate: CC(C)[C@H](NC(=O)OCc1ccccc1)C(=O)N[C@@H](C)C(=O)N[C@@H](CC(=O)O)C(=O)Nc1ccc([N+](=O)[O-])cc1
Description: as §1, §2, §3, §4, §5

[4] = substrate: CC(C)[C@H](NC(=O)OC(C)(C)C)C(=O)N[C@@H](C)C(=O)N[C@@H](CC(=O)O)C(=O)Nc1ccc([N+](=O)[O-])cc1
Description: as §1, §2, §3, §4, §5

B1: interleukin 1β converting enzyme (ICE) (Homo sapiens) (protein)
chain 1: NPAMPTSSGSEGNVKLCSLEEAQRIWKQKSAEIYPIMDKSSRTRLALIICNEEFDSIPRRTGAEVDITGMTMLLQNLGYSVDVKKNLTASDMTTELEAFAHRPEHKTSDSTFLVFMSHGIREGICGKKHSEQVPDILQLNAIFNMLNTKNCPSLKDKPKVIIIQACRGDSPGVVWFKD
chain 2: AIKKAHIEKDFIAFCSSTPDNVSWRHPTMGSVFIGRLIEHMQEYACSCDVEEIFRKVRFSFEQPDGRAQMPTTERVTLTRCFYLFPGH
notes: ICE activity was purified from THP-1 cell lysates by three chromatographic steps; endogenous in cells; host or cells: THP-1 (ATCC-TIB 202) human monocyte cell line; Lysate was purified over G25, Q-Sepharose and MonoQ, then captured on protein A agarose beads carrying anti-ICE antibody
B1 was tested, and the Km [1] was 43.8 µM, the Km [2] was 447 µM and the Km [3] was 97.9 µM. For the same protein, the Km [4] was 443 µM.

Source: patent US5498695A, “Paranitroaniline peptides” (Pfizer Inc., priority 1994, dated 1996)
